“And” between values parts separate entries of the source, which are not always exact repeats. Equal entries are not always repeated.
How the values were obtained:
[1] = molecular target: green-light absorbing proteorhodopsin A18L variant with uncleavable N-terminal signal peptide (marine γ-proteobacteria); experiment: native gel or EMSA; BN-PAGE, NativePAGE 4-16% Bis-Tris gel, about 5 µg protein, 0.4% Cymal-5 and 0.25% Coomassie G-250 in the sample, run in ice water
[2] = molecular target: green-light absorbing proteorhodopsin A18L variant with uncleavable N-terminal signal peptide (marine γ-proteobacteria); experiment: cryo-EM structure; single particle cryo-EM of purified oligomers in 20 mM BTP-HCl pH 7.5, 150 mM NaCl, 0.25% Cymal-5; GPR-A18L at 4.2 mg/mL, PO at 4.0 mg/mL
[3] = molecular target: proteoopsin, retinal-free N-terminally truncated green-light absorbing proteorhodopsin lacking the signal peptide (marine γ-proteobacteria); experiment: as above

In the case of “green-light absorbing proteorhodopsin A18L variant with uncleavable N-terminal signal peptide (natural protein)”, the stoichiometry N [1] is reported as 5 and 6 and the stoichiometry N [2] is reported as 5 and 6.

With “proteoopsin, retinal-free N-terminally truncated green-light absorbing proteorhodopsin lacking the signal peptide (natural protein)” the stoichiometry N [3] was 5.

From paper PMC11322631
